# Measured values as given in patent publication US12486318B2, “Anti-guanosine antibody as a molecular delivery vehicle” (Yale University, priority 2016, dated 2025).
# “Also recorded” adds a separate entry of the source.
# Columns and labels:
# [1] = system: H441 K-Ras addicted human lung cancer cells; experiment: Surviving fraction by colony formation assay; format: cell-based; settings: K-Ras G12V
# Protocol: (§1) FIG. 2A is a line graph showing the effects of 4H2 on a matched pair of isogenic parental (WT) and G12C K-Ras-mutant (KRAS) Cal12T lung cancer cells. Clonogenic survival was measured by colony formation assay (*p<0.02. N=6). FIGS. 2B and 2C are line graphs showing H441 (2B) and H358 K-Ras (2C) addicted human lung cancer cells (G12V and G12C mutations, respectively) treated with control media or media containing 4H2. Surviving fractions were determined by colony formation assay (*p<0.01. N>3). FIG. 2D is a line graph showing the effect of 4H2 on tumor volume (mm^3) of H358 tumor xenografts generated in the flanks of nude mice by subcutaneous injection of tumor cells. Once tumors reached ˜100 mm3 volume mice were treated with direct tumor injection of 50 uL of control PBS or PBS containing 0.5 mg/mL 4H2 twice a week for three weeks. Tumor volumes were monitored, and growth curves are shown. […] N=3 mice per group.
# (§2) Lastly, to confirm that 4H2 is toxic to K-Ras addicted cancer cells in vivo, H358 subcutaneous xenografts were generated in nude mice and treated by direct injection with control buffer or 25 ug of 4H2 twice a week for three weeks.
# [2] = system: H358 K-Ras addicted human lung cancer cells; experiment: Surviving fraction by colony formation assay; format: cell-based; settings: K-Ras G12C
# Protocol: as §1, §2
# [3] = system: ERK and Akt; settings: cited from earlier work
# [4] = system: Akt phosphorylation in Cal12T cells; experiment: Western blot of phospho-Akt; format: cell-based, human; settings: 1 mg/mL
# Protocol: (§3) Cell lysates were prepared and run on 4-15% SDS-PAGE gradient gels, followed by transfer to membranes. Membranes were then blocked and incubated with the indicated primary antibodies, followed by HRP-conjugated secondary antibody and detection of bands by chemiluminescence. Band intensity measurements were taken using ImageJ.
# (§4) To probe the effect of 4H2 on signaling its effect on the phosphorylation of Akt was tested in cells.
# [5] = system: Cal12T cells; experiment: Cell-penetration and co-localization immunofluorescence assay; format: cell-based, human
# Protocol: Cal12T cells were grown on glass coverslips and treated with control media or media containing 0.5 mg/mL 4H2 for one hour. […] For co-localization studies, the fixed cells were also probed overnight with separate rabbit primary antibodies to detect endosomes (C45B10 anti-EEA1 antibody, Cell Signaling), lysosomes (D2D11 anti-LAMP1 antibody, Cell Signaling), endoplasmic reticulum (C81H6 anti-PDI antibody, Cell Signaling), golgi apparatus (D2B6N anti-RCAS1 antibody, Cell Signaling), mitochondria (3E11 anti-COX IV and D3932 anti-AIF antibodies, Cell Signaling), or K-Ras (anti-K-Ras antibody) extensively washed with PBS, and then incubated with an Alexa555-conjugated goat anti-rabbit IgG antibody (Cell Signaling). Cells were also treated with DAPI, and imaged using an EVOS fl digital fluorescence microscope (Advanced Microscopy Group, Bothell, WA) under light, DAPI, GFP, or RFP filters. Fluorescence images were merged using ImageJ (NIH, Bethesda, MD).
# After confirming that 4H2 penetrates live cells, subcellular localization was investigated through immunofluorescence co-localization studies. Cal12T cells were treated with 4H2 (0.5 mg/mL) for one hour and were then washed, fixed, and immunostained with an Alexa488-conjugated anti-mouse IgG antibody. […] Cells treated with 4H2 were also co-immunostained with rabbit primary antibodies against markers of early endosomes (EEA1), lysosomes (LAMP1), Golgi (RASC1), ER (PDI), and mitochondria (COX IV), followed by detection with an Alexa555-conjugated anti-rabbit IgG antibody. Use of the Alexa488 and Alexa555-conjugated antibodies to detect 4H2 and organelle markers allowed separate visualization of 4H2 and organelle locations under GFP and RFP filters, respectively. Merging of the GFP and RFP images should yield a yellow signal in areas of co-localization. DAPI co-stain allowed visualization of nuclei in blue. Representative merged images showing DAPI, GFP, and RFP filters for each co-stain were analyzed.
# To explore this, Cal12T cells treated with 4H2 were co-stained for 4H2 and K-Ras using the technique described above.
# [6] = system: parental (WT) Cal12T lung cancer cells; experiment: Clonogenic survival by colony formation assay; format: cell-based, human; settings: WT K-Ras
# Protocol: as §1
# (§5) Aberrations in cell signaling caused by activating mutations in small GTPases such as the Ras family of proteins are found in ˜30% of malignancies, and K-Ras is one of the most frequently mutated small GTPases (Adjei, J Natl Cancer Inst, 93:1062-1074 (2001), Gysin, et al., Genes Cancer, 2:359-372 (2011)). Development of therapies that are preferentially toxic to K-Ras mutant cancer cells is a major goal in oncology. […]
# [7] = system: G12C K-Ras-mutant Cal12T lung cancer cells; experiment: Clonogenic survival by colony formation assay; format: cell-based, human
# Protocol: as §1, §5
# [8] = GTPase assay, colorimetric Pi release from GTP; format: biochemical; settings: 4H2 0-1 mg/mL, 30 minutes, absorbance at 630 nm
# Protocol: Pi release from GTP after incubation with 4H2 (0-1 mg/mL) for 30 min was measured by colorimetric assay using the Innova GTPase activity kit.
# The effect of 4H2 on Pi release from GTP was tested using a colorimetric assay. 4H2 (0-1 mg/mL) was incubated with GTP for 30 minutes, and Pi release was measured using the Innova GTPase activity kit. Concentration of Pi released was determined from absorbance at 630 nm and comparison to a free Pi standard curve. 4H2 in buffer alone was used as a blank.
# [9] = system: Single-stranded M13mp18 DNA; experiment: Nucleolytic assay; format: biochemical; settings: 0.5 mg/mL antibody, 37° C., 10 minutes
# Protocol: Single-stranded M13mp18 DNA (50 ng; New England Biolabs, Ipswich, MA) was incubated at 37° C. for 10 minutes in control binding buffer (50 mM Tris-HCl, 100 mM NaCl, 10 mM MgCl2) or binding buffer containing 0.5 mg/mL 4H2, 3E10, or 5C6.
# An intriguing feature of some anti-DNA antibodies is an association with catalytic activities. […] To determine if 4H2 has any effect on DNA integrity it was incubated with single-stranded M13mp18 plasmid DNA for 10 minutes and then evaluated the integrity of the DNA on an agarose gel. 3E10 and 5C6 were also included as negative and positive controls, respectively.
# [10] = system: live Cal12T human lung cancer cells; experiment: Live cell penetration of FITC-labeled 4H2, fluorescence microscopy; format: cell-based; settings: FITC-labeled 4H2 4 mg/mL, one hour
# Protocol: (§6) To confirm that 4H2 penetrates live cells and exclude the observation as a fixation artifact, FITC-labeled 4H2 was applied to live Cal12T and A549 human lung cancer cells at 4 mg/mL for one hour. Cells were also treated with Hoechst and MitoTracker stains to allow detection of nuclei and mitochondria, respectively. Cells were then washed and visualized under a fluorescence microscope.
# [11] = system: live A549 human lung cancer cells; experiment: as above; format: cell-based; settings: FITC-labeled 4H2 4 mg/mL, one hour
# Protocol: as §6
# [12] = system: PEO1 human ovarian cancer cells; experiment: Cell penetration, immunostaining of fixed cells after one hour treatment; format: cell-based; settings: washed, alkaline phosphatase-conjugated anti-mouse antibody
# Protocol: The ability of 4H2 to penetrate into live cells was tested. PEO1 human ovarian cancer cells were treated with control media or media containing 4H2 or 3E10 (as a positive control) for one hour, and then cells were washed, fixed, and immunostained with an alkaline phosphatase-conjugated anti-mouse antibody.
# [13] = system: Akt phosphorylation in SW48 human colon cancer cells; experiment: Western blot of phospho-Akt; format: cell-based; settings: 1 mg/mL, 4 hours
# Protocol: FIG. 1A is a line graph showing the effect of 4H2 on release Pi from GTP as measured by colorimetric assay (N=2). FIG. 1B is a bar graph showing the relative amounts of phospho-Akt in Cal12T cells treated with 1 mg/mL 4H2 at 4 and 24 hours relative to control (*p<0.05. N=4). FIG. 1C is a bar graph showing the relative amounts of phospho-Akt in SW48 human colon cancer cells treated with 1 mg/mL 4H2 at 4 hours relative to control (*p<0.05. N=2).
# as §3, §4
# [14] = preliminary findings, data not published; cited from earlier work
# [15] = system: cAMP in cultured cells; settings: previous findings; cited from earlier work
# [16] = system: H358 subcutaneous xenografts; experiment: Tumor growth suppression assay; format: in vivo, nude mice; settings: intratumoral 25 ug (50 uL of 0.5 mg/mL) twice a week for three weeks; day 15 after initiation of treatment, p<0.01
# Protocol: as §1
# Subcutaneous xenografts were generated in nude mice by injection of 1×10^6 H358 cancer cells. Treatment with direct intratumoral injection of 50 uL of control PBS (N=3) or 4H2 in PBS (0.5 mg/mL) (N=3) twice a week for three weeks was initiated once tumors reached ˜100 mm^3. Tumor volumes were tracked by caliper measurements. […]
# [17] = system: Htori-3-LLU thyroid epithelial cells; settings: cited from earlier work
# [18] = system: DLD1 colon cancer cells; experiment: 4H2 scFv cell penetration, protein L immunostaining; format: cell-based; settings: 6 μM, one hour
molecule,measurement,setting,value
"4H2: monoclonal anti-guanosine antibody produced by a hybridoma from MRL/lpr; VL SEQ ID NO:1, VH SEQ ID NO:5 (antibody, listed as Mus musculus, V domains shown) VH: EVQLQQSGPELVKPGASVKMSCKASGYTFTDYYMNWVKQSHGKSLEWIGRVNPSNGGISYNQKFKGKATLTVDKSLSTAYMQLNSLTSEDSAVYYCARGPYTMYYWGQGTSVTVSS VL: DIVLTQSPATLSVTPGDRVSLSCRASQSISNYLHWYQQKSHESPRLLIKYASQSISGIPSRFSGSGSGTDFTLSIISVETEDFGMYFCQQSNSWPLTFGAGTKLELK","surviving fraction, sensitivity to 4H2",[1],sensitive to 4H2
same,"surviving fraction, sensitivity to 4H2",[2],sensitive to 4H2
same,phosphorylation of ERK and Akt,[3],reduce phosphorylation of ERK and Akt
same,amount of phospho-Akt relative to control,[4]; 24 hours,reduced the amount of phospho-Akt
same,amount of phospho-Akt relative to control,[4]; four hours,reduced the amount of phospho-Akt
same,co-localization with endosomes or lysosomes,"[5]; 0.5 mg/mL, one hour",did not colocalize with endosomes or lysosomes
same,Alexa488 signal (4H2) location,"[5]; 0.5 mg/mL, one hour, fixed cells",detected in the cytoplasm
same,"localization to organelles: early endosomes (EEA1), lysosomes (LAMP1), Golgi (RASC1), ER (PDI), mitochondria (COX IV)","[5]; 0.5 mg/mL, one hour, fixed cells, merged GFP/RFP images",did not appear to directly localize to any of the organelles tested
same,co-localization with K-Ras,"[5]; co-stain for 4H2 and K-Ras, merged fluorescence",at least some degree of co-localization
same,"clonogenic survival, sensitivity to 4H2",[6],more resistant to its effects
same,"clonogenic survival, sensitivity to 4H2",[7],highly sensitive to 4H2
same,Pi release from GTP,[8],dose-dependent release of Pi from GTP
same,effect on DNA integrity (agarose gel),[9],neither 3E10 nor 4H2 had any discernible effects on the DNA integrity
same,4H2 signal in nuclei (overlay with Hoechst),[10],absence of 4H2 signal in the nuclei
same,"FITC fluorescence correlating to 4H2, location",[10],detected in the cytoplasm
same,co-localization with mitochondria (MitoTracker),[10],a distinct co-localization with mitochondria could not be confirmed
same,4H2 signal in nuclei (overlay with Hoechst),[11],absence of 4H2 signal in the nuclei
same,"FITC fluorescence correlating to 4H2, location",[11],detected in the cytoplasm
same,co-localization with mitochondria (MitoTracker),[11],a distinct co-localization with mitochondria could not be confirmed
same,location of antibody staining in cells,[12],exclusively cytoplasmic staining
same,amount of phospho-Akt relative to control,[13],reduce amounts of p-Akt
same,cleavage of GTP,[14],catalyzed cleavage of the gamma-phosphate bond in radiolabeled GTP
same,cAMP in cells,[15],reduces cAMP in cells
same,tumor growth / tumor volume,[16],statistically significant difference in tumor volumes; also recorded: Detectable suppression of tumor growth
same,association with mitochondria,[17],appeared to associate with mitochondria
"4H2 scFv: single chain variable fragment of 4H2, SEQ ID NO:22: VL, linker, VH, His6 tag (protein) scFv: DIVLTQSPATLSVTPGDRVSLSCRASQSISNYLHWYQQKSHESPRLLIKYASQSISGIPSRFSGSGSGTDFTLSIISVETEDFGMYFCQQSNSWPLTFGAGTKLELKADAAPGGGGSGGGGSGGGGSEVQLQQSGPELVKPGASVKMSCKASGYTFTDYYMNWVKQSHGKSLEWIGRVNPSNGGISYNQKFKGKATLTVDKSLSTAYMQLNSLTSEDSAVYYCARGPYTMYYWGQGTSVTVSSHHHHHH",cell penetration,[18],cell-penetrating activity
